US20240116985A1 (published 2024)
Starred links: 1 amine or outer side, 2 acyl side, 3 side chain; linkers in the order of their positions; H or OH if unused. Positions of bridges follow the written chain, without caps; N, C: chain ends. Non-standard residues stand in square brackets, D forms with d. Primed or numbered codes have the meaning given here. PyrS2″ = (S)-3-amino-1-((pent-4-en-1-yloxy)carbonyl)pyrrolidine-3-carboxylic acid (stapling residue), C=CCCCOC(=O)N1CC[C@@](N[*:1])(C(=O)[*:2])C1; B5(4) = 2,2-bis(4-pentenyl)glycine = 2-amino-2-(pent-4-en-1-yl)hept-6-enoic acid (stitching residue), C=CCCCC(CCCC=C)(N[*:1])C(=O)[*:2]; PyrS2 = (S)-3-amino-1-((pent-4-en-1-yloxy)carbonyl)pyrrolidine-3-carboxylic acid, C=CCCCOC(=O)N1CC[C@@](N[*:1])(C(=O)[*:2])C1; MorphAsn = (S)-2-amino-4-morpholino-4-oxobutanoic acid, O=C(C[C@H](N[*:1])C(=O)[*:2])N1CCOCC1; B5 = 2-amino-2-(pent-4-en-1-yl)hept-6-enoic acid, C=CCCCC(CCCC=C)(N[*:1])C(=O)[*:2]; Me2Asn = listed as N4-methyl-L-asparagine, CNC(=O)C[C@H](N[*:1])C(=O)[*:2]; MeAsn = N4-methyl-L-asparagine, CNC(=O)C[C@H](N[*:1])C(=O)[*:2]; MeGln = N5-methyl-L-glutamine, CNC(=O)CC[C@H](N[*:1])C(=O)[*:2]; Phe(3-COOH) = N[C@@H](Cc1cccc(C(=O)O)c1)C(=O)O; Phe(2-CF3) = N[C@@H](Cc1ccccc1C(F)(F)F)C(=O)O; Bta = N[C@@H](Cc1csc2ccccc12)C(=O)O; αAllylPro = C=CC[C@@]1(C(=O)O)CCCN1; tBuAla = CC(C)(C)C[C@H](N)C(=O)O; 3Thi = N[C@@H](Cc1ccsc1)C(=O)O; Cha = N[C@@H](CC1CCCCC1)C(=O)O; 4ClBztA = not defined here; Ac5c = NC1(C(=O)O)CCCC1; Ac3c = NC1(C(=O)O)CC1; Aib = CC(C)(N)C(=O)O

T1: B-cat-Halo (beta-catenin HaloTag fusion expressed in HEK293 cells) (UniProt P35222 1-781)
T1 sequence (looked up): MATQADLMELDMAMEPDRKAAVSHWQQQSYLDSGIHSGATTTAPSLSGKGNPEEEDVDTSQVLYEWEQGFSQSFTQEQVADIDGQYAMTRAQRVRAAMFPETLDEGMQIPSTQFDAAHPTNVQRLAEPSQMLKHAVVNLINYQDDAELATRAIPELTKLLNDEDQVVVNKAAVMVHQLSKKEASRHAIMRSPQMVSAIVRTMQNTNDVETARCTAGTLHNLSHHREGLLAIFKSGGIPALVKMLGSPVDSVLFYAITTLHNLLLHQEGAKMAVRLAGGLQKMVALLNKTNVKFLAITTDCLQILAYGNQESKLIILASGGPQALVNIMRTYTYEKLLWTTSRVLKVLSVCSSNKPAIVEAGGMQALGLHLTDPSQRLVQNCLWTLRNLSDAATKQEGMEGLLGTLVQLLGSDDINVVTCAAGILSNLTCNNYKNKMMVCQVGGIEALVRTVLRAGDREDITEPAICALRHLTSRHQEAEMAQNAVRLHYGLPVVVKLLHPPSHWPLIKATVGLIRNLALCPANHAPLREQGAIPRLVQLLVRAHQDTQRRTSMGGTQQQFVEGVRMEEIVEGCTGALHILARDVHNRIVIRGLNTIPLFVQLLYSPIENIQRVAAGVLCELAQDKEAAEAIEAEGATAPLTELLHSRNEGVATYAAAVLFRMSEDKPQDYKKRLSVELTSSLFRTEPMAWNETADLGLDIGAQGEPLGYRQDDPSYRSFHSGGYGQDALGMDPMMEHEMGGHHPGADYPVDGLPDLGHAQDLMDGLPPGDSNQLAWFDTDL


These binders were tested against T1, B-cat-Halo (beta-catenin HaloTag fusion …) (assay: cell-based or functional assay).

NanoBRET Abs IC50 [µM] | Binder
> 20 | Ac-[αAllylPro]D[tBuAla][B5(4)]NT[Ac5c]AFN[PyrS2″][3Thi][Bta]Q-NH2 (staple 1-4, 4-11) [I-2493]
> 20 | Ac-[αAllylPro]D[tBuAla][B5]NT[Aib]AFN[PyrS2][3Thi][Bta][Me2Asn]-NH2 (staple 1-4, 4-11) [I-2494]
> 20 | Ac-[αAllylPro]D[tBuAla][B5]NT[Aib]AFN[PyrS2][3Thi][Bta][MeAsn]-NH2 (staple 1-4, 4-11) [I-2495]
> 20 | Ac-[αAllylPro]D[tBuAla][B5]NT[Aib]AF[Me2Asn][PyrS2][3Thi][Bta]N-NH2 (staple 1-4, 4-11) [I-2496]
> 20 | Ac-[αAllylPro]D[tBuAla][B5]NT[Aib]AF[MeAsn][PyrS2][3Thi][Bta]N-NH2 (staple 1-4, 4-11) [I-2497]
> 20 | Ac-[αAllylPro]N[Cha][B5]DQ[Me2Gln]AFL[PyrS2]F[Bta][MorphAsn]-NH2 (staple 1-4, 4-11) [I-2501]
> 20 | Ac-[αAllylPro]N[Cha][B5]DQ[MeGln]AFL[PyrS2]F[Bta][MorphAsn]-NH2 (staple 1-4, 4-11) [I-2502]
> 20 | Ac-[αAllylPro]N[Cha][B5]DQQAFL[PyrS2]F[Bta][MorphAsn]-NH2 (staple 1-4, 4-11) [I-2504]

The remaining lines, values behind:

Binder | NanoBRET Abs IC50 [µM]
Ac-[αAllylPro]D[tBuAla][B5(4)]D[Phe(3-COOH)]AAFL[PyrS2″][Phe(2-CF3)][7ClBztA]Q-NH2 (staple 1-4, 4-11) [I-2486] | 3.7
Ac-[αAllylPro]D[tBuAla][B5(4)]D[Phe(3-COOH)]QAFL[PyrS2″][Phe(2-CF3)][7ClBztA]A-NH2 (staple 1-4, 4-11) [I-2487] | 4.2
Ac-[αAllylPro]D[tBuAla][B5(4)]D[Phe(3-COOH)]AAFL[PyrS2″][Phe(2-CF3)][7FBztA]Q-NH2 (staple 1-4, 4-11) [I-2488] | 3.6
Ac-[αAllylPro]D[tBuAla][B5(4)]D[Phe(3-COOH)]QAFL[PyrS2″][Phe(2-CF3)][7FBztA]A-NH2 (staple 1-4, 4-11) [I-2489] | 7.4
Ac-[αAllylPro]D[tBuAla][B5(4)]D[Phe(3-COOH)]AAFL[PyrS2″][Phe(2-CF3)][4ClBztA]Q-NH2 (staple 1-4, 4-11; reading uncertain) [I-2490] | 6.4
Ac-[αAllylPro]D[tBuAla][B5(4)]D[Phe(3-COOH)]QAFL[PyrS2″][Phe(2-CF3)][4ClBztA]A-NH2 (staple 1-4, 4-11; reading uncertain) [I-2491] | 6.1
Ac-[αAllylPro]D[tBuAla][B5(4)]NT[Ac3c]AFN[PyrS2″][3Thi][Bta]Q-NH2 (staple 1-4, 4-11) [I-2492] | > 20
